Test results as given in the RNAGym collection of RNA variant scans (doi:10.7554/elife.90254).

B1: LINE1-full (parent)
chain: UACGUAGGUGGUUUUCCCCUGAUAGUGCUAAGGGGGCCUGGAAGUUUGGACUGGGCAGAGCUCAACACAGCGUGGCAAAGUGGCUGUGGCUAGACUGCCUCUCUGGAUUCCUCGUCACUCAGCAGGGCAUCUCUGAGAGAAAUGCC

Variants of: B1
Test: self-cleavage, relative activity (ratio to wild type); higher = more cleavage; in vitro, sequencing; the parent is a self-cleaving ribozyme

Variant | self-cleavage
U15A U62A | 0.04
U109G A141G | 0.93
U52C G126A | 1.18
G11U | 1.56
A42G G88A | 0.09
A65G C103U | 0.06
A43U A78G | 0.61
A59U C103U | 0.5
A6G G74A | 0.4
U1C A129G | 1.38
C19U U45C | 0.86
A69G C120U | 0.44
U26C G97A | 0.07
A22C U73C | 1.88
U13A U134G | 1.34
U81C G114A | 1.17
U87G U112C | 0.05
A43G U115C | 1.52
U134A A142G | 1.18
U12C G75C | 0.66
U9G U100C | 1.61
A31U A65U | 0.21
G58A A129U | 0.06
A42G A107G | 1.7

Variant | self-cleavage
U62C G126C | 0.01
A136G U143C | 1.47
U5C U14A | 0.86
U130A U143C | 1.25
C76G | 2.01
G21U U119C | 1.84
C18A | 1.39
G82U A117U | 1.3
U20G U96C | 0.26
U15C A24G | 1.13
A57U G60A | 0.04
G48A A64U | 0.39
A107U A124U | 1.61
A121G G135A | 2.36
A50G U100C | 0.98
C113U U143A | 1.1
U62C C128U | 0.03
A42U U108C | 1.33
U13A A94G | 0.19
A22C A50G | 1.86
G60A A124U | 0.02
G41A U119C | 1.15
A77U U91C | 0.6
G35A A136U | 1.1

Variant | self-cleavage
A43G U46A | 1.17
U81C U143C | 1.61
C3U A136G | 1.08
A43G | 1.21
A69G U87A | 0.03
U91C U119A | 0.48
C61U G106A | 0.02
G4U U39A | 1.95
A30G U130C | 1.36
U47G A67G | 0.06
U29A A50G | 0.51
U119A A141G | 1.74
G58U A141G | 0.04
A57G U96A | 0.05
U1C U108C | 0.67
U29C C61A | 0.03
U39A U96C | 0.19
U1C U12G | 0.84
U52C A136G | 2.9
G10A U102C | 1.39
U108C G114A | 1.71
A140G G144A | 0.92
U26C A69U | 0.11
U26C A69G | 0.46

Variant | self-cleavage
G93A C95G | 0.04
A65U U87C | 0.04
U13C U85G | 0.29
U47C G53U | 1.3
C120A | 1.41
U73C U81A | 2.36
U20C A31U | 1.08
A43G G125U | 1.02
U46A A107C | 1.99
A79G G82U | 1.32
G21A U45C | 0.84
G33A C56U | 0.35
A59G G127A | 0.07
U12G A77C | 0.69
C66G | 0.04
C19A A138G | 0.72
U26C C38U | 1.29
U130A C145U | 1.79
C63U A141G | 0.36
U13A U45C | 1.01
U85C U91C | 0.06
G27A A121G | 1.46
A124U U130C | 1.66
C37G U119C | 1.46

Variant | self-cleavage
U100C C113U | 1.7
U73C A78C | 0.77
G114U U134A | 1.09
C66U A107G | 0.03
U108C C128U | 1.78
G74U A140G | 1.99
G4C A141G | 0.5
C56A U130G | 0.03
A64G U73C | 0.17
C101A U134G | 1.8
A69U A129G | 0.07
C99U A140G | 0.71
U108C U119A | 1.53
U96A G125U | 0.09
U39A U87C | 0.22
G72U U115C | 1.31
G54A U134G | 0.76
U91C A92U | 0.23
G4A A140G | 0.76
G106U A129G | 0.98
A59G A92G | 0.04
C66A U115C | 0.05
U20C G27A | 1.12
U115A A138U | 1.77

Variant | self-cleavage
G8A A117C | 1.03
U29C U45A | 0
U45C U119A | 1.3
G32A U52A | 1.28
A31G A107G | 1.09
G82A A141G | 1.8
U47C U112A | 1.02
G7A U132C | 1.2
U81G G122U | 1.42
G60A U81C | 0.03
U46C U143C | 1.52
A129G A138U | 2.12
U130C A141G | 1.55
A78C U102C | 2.53
U12C U26A | 1.03
U12G A138G | 1.29
U23C U108C | 1.38
U9A C19U | 0.71
U45A G89C | 0.31
A31U A64U | 0.42
U108A G122U | 0.97
A50G A57U | 0.14
A6U A57G | 0
U20A A121G | 1.14

Variant | self-cleavage
C28A A141G | 0.61
U109A U134A | 0.68
U119C A141U | 2.27
U39C A141G | 1.11
C56U A117G | 0.18
U13A C133U | 0.67
U47C U104G | 1.2
G35A A77G | 1.92
G49A U119C | 0.62
U45G U87C | 0.25
A69G U109C | 0.29
A24C A79U | 2.24
U46C U115C | 1.66
A30G C116U | 1.27
U5C | 1.06
U9C A42C | 0.88
U52C A141U | 1.14
G34U U81C | 2.12
U108C A136U | 1.93
C18U G60A | 0.01
U46G G53U | 1.73
A43G A67G | 0.46
U9C C19A | 1.55
